Reference: US20200123268A1 (UNIVERSIT DEGLI STUDI MAGNA GRAECIA CATANZARO, published 2020)

T1: human CD43, endogenous, on primary cells and cell lines that carry the UMG1 epitope (human, UniProt P16150 20-400, native glycosylation of the cell concerned)
T1 construct: also called UMG1 antigen; the target
T1 sequence: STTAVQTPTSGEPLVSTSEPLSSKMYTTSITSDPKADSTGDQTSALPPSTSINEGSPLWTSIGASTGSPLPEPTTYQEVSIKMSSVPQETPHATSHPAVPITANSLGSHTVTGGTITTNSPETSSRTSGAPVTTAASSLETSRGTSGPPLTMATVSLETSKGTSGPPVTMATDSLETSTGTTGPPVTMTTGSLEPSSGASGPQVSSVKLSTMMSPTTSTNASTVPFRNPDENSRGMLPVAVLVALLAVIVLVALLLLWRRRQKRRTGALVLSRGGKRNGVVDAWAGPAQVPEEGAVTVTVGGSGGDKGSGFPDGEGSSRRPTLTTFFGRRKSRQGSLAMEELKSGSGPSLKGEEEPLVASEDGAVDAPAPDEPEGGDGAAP


molecular target: T1, human CD43, endogenous, on primary …; test: flow cytometry, antibody at 1 ug/ml, FITC mouse anti-human IgG secondary; cell line of the histograms not labelled (HPB-ALL or H9)
Procedure: (§1) Each screening was performed twice, for a total of 4 replicates.

Row | binding result | Binder
1 | binds | ch-UMG1 (chimeric antibody: murine UMG1 variable regions on human IgG1 constant regions) (antibody, V domains shown, also called chimeric mAb ch-UMG1; chimeric mAb) VH: DVQLVESGGGLVQPGGSRKLSCVASGFTFSSFGMHWVRQAPEKGLEWVAYISSGSGNFYYVDTVKGRFTISRDNPKNTLFLQMTSLRSEDTAMYYCARSTYYHGSRGAMDYWGQGTSVTVSS VL: QIALTQSPAIMSASPGEKVTMTCSASSSVSSMYWYQLKPGSSPRLLIYDTSKMASGVPIRFSGSGSGTSFSLTVSRVEAEDAATYYCQQWSSYPPITFGAGSKLELKR

molecular target: T1, human CD43, endogenous, on primary …; test: flow cytometry, antibody at 1 ug/ml, FITC mouse anti-human IgG secondary; histogram grid, cell line not labelled (HPB-ALL or H9)
Procedure: as §1

Row | binding result | Binder
2 | binds | humanized UMG1 antibody H3-L1 (VH3 + VL1) (antibody, IgG1, V domains shown, The label follows the pattern H3-L4) VH: EVQLVESGGGLVQPGGSLRLSCVASGFTFSSFGMHWVRQAPGKGLEWVAYISSGSGNFYYVDTVKGRFTISRDNAKNSLYLQMNSLRAEDTAVYYCARSTYYHGSRGAMDYWGQGTLVTVSS VL: EIVLTQSPATLSLSPGERATLSCSASSSVSSMYWYQQKPGLAPRLLIYDTSKMASGIPDRFSGSGSGTDFTLTISRLEPEDFAVYYCQQWSSYPPITFGQGTRLEIK
3 | binds | humanized UMG1 antibody H3-L3 (VH3 + VL3) (antibody, IgG1, V domains shown, The label follows the pattern H3-L4) VH: EVQLVESGGGLVQPGGSLRLSCVASGFTFSSFGMHWVRQAPGKGLEWVAYISSGSGNFYYVDTVKGRFTISRDNAKNSLYLQMNSLRAEDTAVYYCARSTYYHGSRGAMDYWGQGTLVTVSS VL: QVVMTQSPAFLSVTPGEKVTITCSASSSVSSMYWYQQKPDQAPKLLIYDTSKMASGVPSRFSGSGSGTDFTFTISSLEAEDAATYYCQQWSSYPPITFGGGTKVEIK
4 | binds | humanized UMG1 antibody H4-L3 (VH4 + VL3) (antibody, IgG1, V domains shown, The label follows the pattern H3-L4) VH: QVQLVESGGGVVQPGGSLRLSCVASGFTFSSFGMHWVRQAPGKGLEWVAYISSGSGNFYYVDTVKGRFTISRDNSKNTLYLQMNSLRAEDTAVYYCARSTYYHGSRGAMDYWGQGTLVTVSS VL: QVVMTQSPAFLSVTPGEKVTITCSASSSVSSMYWYQQKPDQAPKLLIYDTSKMASGVPSRFSGSGSGTDFTFTISSLEAEDAATYYCQQWSSYPPITFGGGTKVEIK
5 | binds | humanized UMG1 antibody H3-L2 (VH3 + VL2) (antibody, IgG1, V domains shown, The label follows the pattern H3-L4) VH: EVQLVESGGGLVQPGGSLRLSCVASGFTFSSFGMHWVRQAPGKGLEWVAYISSGSGNFYYVDTVKGRFTISRDNAKNSLYLQMNSLRAEDTAVYYCARSTYYHGSRGAMDYWGQGTLVTVSS VL: EIALTQSPATLSLSPGERATLSCSASSSVSSMYWYQLKPGLAPRLLIYDTSKMASGIPIRFSGSGSGTDFTLTVSRVEPEDFAVYYCQQWSSYPPITFGQGTRLEIK
6 | binds | humanized UMG1 antibody H1-L2 (VH1 + VL2) (antibody, IgG1, V domains shown, The label follows the pattern H3-L4) VH: EVQLVESGGGLVQPGGSLRLSCAASGFTFSSFGMHWVRQAPGKGLEWVSYISSGSGNFYYVDTVKGRFTISRDNAKNSLYLQMNSLRAEDTAVYYCARSTYYHGSRGAMDYWGQGTLVTVSS VL: EIALTQSPATLSLSPGERATLSCSASSSVSSMYWYQLKPGLAPRLLIYDTSKMASGIPIRFSGSGSGTDFTLTVSRVEPEDFAVYYCQQWSSYPPITFGQGTRLEIK
7 | binds | humanized UMG1 antibody H4-L1 (VH4 + VL1) (antibody, IgG1, V domains shown, The label follows the pattern H3-L4) VH: QVQLVESGGGVVQPGGSLRLSCVASGFTFSSFGMHWVRQAPGKGLEWVAYISSGSGNFYYVDTVKGRFTISRDNSKNTLYLQMNSLRAEDTAVYYCARSTYYHGSRGAMDYWGQGTLVTVSS VL: EIVLTQSPATLSLSPGERATLSCSASSSVSSMYWYQQKPGLAPRLLIYDTSKMASGIPDRFSGSGSGTDFTLTISRLEPEDFAVYYCQQWSSYPPITFGQGTRLEIK
8 | binds | humanized UMG1 antibody H2-L3 (VH2 + VL3) (antibody, IgG1, V domains shown, The label follows the pattern H3-L4) VH: EVQLVESGGGLVQPGGSLRLSCVASGFTFSSFGMHWVRQAPGKGLEWVSYISSGSGNFYYVDTVKGRFTISRDNAKNSLYLQMNSLRAEDTAVYYCARSTYYHGSRGAMDYWGQGTLVTVSS VL: QVVMTQSPAFLSVTPGEKVTITCSASSSVSSMYWYQQKPDQAPKLLIYDTSKMASGVPSRFSGSGSGTDFTFTISSLEAEDAATYYCQQWSSYPPITFGGGTKVEIK
9 | binds | humanized UMG1 antibody H1-L1 (VH1 + VL1) (antibody, IgG1, V domains shown, The label follows the pattern H3-L4) VH: EVQLVESGGGLVQPGGSLRLSCAASGFTFSSFGMHWVRQAPGKGLEWVSYISSGSGNFYYVDTVKGRFTISRDNAKNSLYLQMNSLRAEDTAVYYCARSTYYHGSRGAMDYWGQGTLVTVSS VL: EIVLTQSPATLSLSPGERATLSCSASSSVSSMYWYQQKPGLAPRLLIYDTSKMASGIPDRFSGSGSGTDFTLTISRLEPEDFAVYYCQQWSSYPPITFGQGTRLEIK
10 | binds | humanized UMG1 antibody H1-L3 (VH1 + VL3) (antibody, IgG1, V domains shown, The label follows the pattern H3-L4) VH: EVQLVESGGGLVQPGGSLRLSCAASGFTFSSFGMHWVRQAPGKGLEWVSYISSGSGNFYYVDTVKGRFTISRDNAKNSLYLQMNSLRAEDTAVYYCARSTYYHGSRGAMDYWGQGTLVTVSS VL: QVVMTQSPAFLSVTPGEKVTITCSASSSVSSMYWYQQKPDQAPKLLIYDTSKMASGVPSRFSGSGSGTDFTFTISSLEAEDAATYYCQQWSSYPPITFGGGTKVEIK
11 | binds | humanized UMG1 antibody H4-L2 (VH4 + VL2) (antibody, IgG1, V domains shown, The label follows the pattern H3-L4) VH: QVQLVESGGGVVQPGGSLRLSCVASGFTFSSFGMHWVRQAPGKGLEWVAYISSGSGNFYYVDTVKGRFTISRDNSKNTLYLQMNSLRAEDTAVYYCARSTYYHGSRGAMDYWGQGTLVTVSS VL: EIALTQSPATLSLSPGERATLSCSASSSVSSMYWYQLKPGLAPRLLIYDTSKMASGIPIRFSGSGSGTDFTLTVSRVEPEDFAVYYCQQWSSYPPITFGQGTRLEIK
12 | binds | humanized UMG1 antibody H2-L1 (VH2 + VL1) (antibody, IgG1, V domains shown, The label follows the pattern H3-L4) VH: EVQLVESGGGLVQPGGSLRLSCVASGFTFSSFGMHWVRQAPGKGLEWVSYISSGSGNFYYVDTVKGRFTISRDNAKNSLYLQMNSLRAEDTAVYYCARSTYYHGSRGAMDYWGQGTLVTVSS VL: EIVLTQSPATLSLSPGERATLSCSASSSVSSMYWYQQKPGLAPRLLIYDTSKMASGIPDRFSGSGSGTDFTLTISRLEPEDFAVYYCQQWSSYPPITFGQGTRLEIK
13 | binds | humanized UMG1 antibody H1-L4 (VH1 + VL4) (antibody, IgG1, V domains shown, The label follows the pattern H3-L4) VH: EVQLVESGGGLVQPGGSLRLSCAASGFTFSSFGMHWVRQAPGKGLEWVSYISSGSGNFYYVDTVKGRFTISRDNAKNSLYLQMNSLRAEDTAVYYCARSTYYHGSRGAMDYWGQGTLVTVSS VL: QVVMTQSPAFLSVTPGEKVTITCSASSSVSSMYWYQLKPDQAPKLLIYDTSKMASGVPIRFSGSGSGTDFTFTVSSVEAEDAATYYCQQWSSYPPITFGGGTKVEIK
14 | binds | humanized UMG1 antibody H4-L4 (VH4 + VL4) (antibody, IgG1, V domains shown, The label follows the pattern H3-L4) VH: QVQLVESGGGVVQPGGSLRLSCVASGFTFSSFGMHWVRQAPGKGLEWVAYISSGSGNFYYVDTVKGRFTISRDNSKNTLYLQMNSLRAEDTAVYYCARSTYYHGSRGAMDYWGQGTLVTVSS VL: QVVMTQSPAFLSVTPGEKVTITCSASSSVSSMYWYQLKPDQAPKLLIYDTSKMASGVPIRFSGSGSGTDFTFTVSSVEAEDAATYYCQQWSSYPPITFGGGTKVEIK
15 | binds | humanized UMG1 antibody H2-L4 (VH2 + VL4) (antibody, IgG1, V domains shown, The label follows the pattern H3-L4) VH: EVQLVESGGGLVQPGGSLRLSCVASGFTFSSFGMHWVRQAPGKGLEWVSYISSGSGNFYYVDTVKGRFTISRDNAKNSLYLQMNSLRAEDTAVYYCARSTYYHGSRGAMDYWGQGTLVTVSS VL: QVVMTQSPAFLSVTPGEKVTITCSASSSVSSMYWYQLKPDQAPKLLIYDTSKMASGVPIRFSGSGSGTDFTFTVSSVEAEDAATYYCQQWSSYPPITFGGGTKVEIK
16 | binds | humanized UMG1 antibody H2-L2 (VH2 + VL2) (antibody, IgG1, V domains shown, The label follows the pattern H3-L4) VH: EVQLVESGGGLVQPGGSLRLSCVASGFTFSSFGMHWVRQAPGKGLEWVSYISSGSGNFYYVDTVKGRFTISRDNAKNSLYLQMNSLRAEDTAVYYCARSTYYHGSRGAMDYWGQGTLVTVSS VL: EIALTQSPATLSLSPGERATLSCSASSSVSSMYWYQLKPGLAPRLLIYDTSKMASGIPIRFSGSGSGTDFTLTVSRVEPEDFAVYYCQQWSSYPPITFGQGTRLEIK
